Measured values taken from patent EP4786489A1, “IL-22 MUTANT, PREPARATION METHOD THEREFOR, AND USE THEREOF” (Nanjing Novoacine Biotechnology Co., Ltd., priority 2023, dated 2025).

Legend:
SAA = assay: Mouse PD preference study: plasma SAA; type: in vivo, mice; details: at equivalent or superior Reg3β Cmax: 60K-PEG-IL22-D109C 0.1 mg/kg vs 60K-PEG-IL22-P120C 0.3 mg/kg vs IL-22-Fc 1 mg/kg, s.c.
Procedure: Based on the in vitro preference results and preliminary PD screening results, the molecules 60k-PEG-IL22-D109C and 60k-PEG-IL22-P120C were selected. PD testing was performed in three mice per dose group at different dose levels according to the method described in Example 14, including the pharmacodynamic-related molecule Reg3β and the inflammation-related molecule SAA. The control was IL-22-Fc. Blood samples were collected before dosing and at 4, 24, 48, 72, 96, 144, 192, 264, and 336 hours after dosing. Plasma was separated using anticoagulated blood samples. For the control molecules wt IL-22 and hB3-his, samples were collected only up to 96 hours.
The detection method for SAA was as follows: a kit containing detecting antibody pairs and positive controls (Abcam, Ab216059) was used to detect SAA concentrations in appropriately diluted plasma samples. The assay was performed according to the manufacturer's instructions. Sa-HRP (Pierce 21126) was used for conjugation. After washing, tetramethylbenzidine peroxidase substrate (TMB, Surmodics, TMBS-1000-01) was added for color development for 10 minutes. The reaction was terminated with 2 M sulfuric acid, and the plate was read at 450 nm with 630 nm as the reference using a microplate reader. SAA was measured before dosing and at 24, 48, 72, 96, and 144 hours after dosing. The original SAA concentration in each sample was calculated. […]

[1] = Mouse PK, plasma concentration by ELISA; type: in vivo; details: single s.c. 1 mg/kg, male Balb/C mice
Procedure: Male Balb/C mice (n = 4 per group) were administered a single subcutaneous injection at a dose of 1 mg/kg. Blood samples were collected before dosing and at 4 (no samples were collected at this time point for 60k-PEG-IL22-D109C and 60k-PEG-IL22-P120C), 8, 24, […], 48, 72, 96, and 120 hours after dosing. Anticoagulated blood was used to prepare plasma.
The concentrations of each test candidate in plasma were quantified by ELISA. Anti-IL22 Antibody (Sino Biological, 13059-MM24), diluted in PBS to 2 µg/mL, was used for coating. Standard curves of each test candidate and plasma samples were diluted to fall within the linear range of detection. Recombinant Anti-IL22 Antibody (Sino Biological, 13059-R034-H) was used for detection. The original concentration of each test candidate in the samples was calculated using a four-parameter fit of the standard curve for each test candidate. Pharmacokinetic parameters of each test candidate in mouse plasma were analyzed (Figure 12). Table 13. Dosing information for the mouse PK study

Reg3β = assay: Mouse PD: plasma Reg3β after single administration (ELISA); type: in vivo; set-up: Reg3βCmax: unit not given here; details: for Reg3βCmax: mouse plasma, wt IL-22 i.p.
Procedure: The ELISA method was used to determine the baseline levels and post-dose changes of the biomarker Reg3β in plasma samples before and after administration of different test candidates.
For the preferable test candidates, one mouse per dose group was subcutaneously injected at 0.5, 1, or 3 mg/kg. The control molecules were IL-22-Fc, administered subcutaneously at 0.3 and 1 mg/kg, and wt IL-22, administered intraperitoneally at the corresponding doses.
Approximately 40 µL of orbital blood was collected with anticoagulation on the day before dosing and at 4, 24, 48, 96, 144, 192, 264, 336, and 408 hours after dosing, followed by plasma separation. ELISA plates were coated overnight at 4°C with 1 µg/mL anti-Reg3β (Sino Biological, 51153-R065) dissolved in PBS. Mouse Reg3β (Sino Biological, 51153-M08H) was serially diluted to generate a positive control standard curve. Plasma samples were appropriately diluted to fall within the linear range of the standard curve. After blocking, samples were added and incubated for 2 hours. Incubation was then performed with the secondary antibody sheep anti-mouse Reg3β (R&D Systems, AF5110-SP) and HRP-conjugated antibody (HRP-Rabbit anti-sheep IgG H&L, Abcam, Ab97130). After final washing, tetramethylbenzidine peroxidase substrate (TMB, Surmodics, TMBS-1000-01) was added for color development for 10 minutes. The reaction was terminated with 2 M sulfuric acid, and absorbance was read at 450 nm with 630 nm as reference using a microplate reader. The original concentrations of Reg3β in each sample were calculated. Concentration versus time curves were plotted (Figure 9).

STAT3 = STAT3 phosphorylation in HaCaT cells by FACS (tissue activation preference); type: cell-based, Human; details: STAT3 activation in HT29 vs HaCaT cells
Procedure: Human immortalized keratinocyte HaCaT cells were recovered and cultured in MEM/EBSS medium (Cytiva, SH30024.01) supplemented with 15% FBS and 1% P/S (Cytiva, SV30010). When cell confluence reached 70%-80%, cells were digested with 0.25% Trypsin-EDTA (Gibco, 25200-056), terminated with complete medium, and resuspended to […]. After mixed thoroughly, a total of 120 µL per well cells was seeded into a 96-well plate (Corning, 3599) at a density of 1.5 × 10^5 cells per well and incubated overnight at 37°C with 5% CO2.
wt IL-22 was prepared at an initial working concentration of 1000 nM, and the remaining samples were prepared at 10000 nM as the starting concentration. […] After staining at room temperature in the dark for 1 hour, cells were washed twice with 1× PBS and analyzed by flow cytometry to determine the mean fluorescence intensity (MFI).
Tissue activation preference of different test candidates was evaluated by comparing their ability to activate STAT3 in intestinal-derived HT29 cells and skin-derived HaCaT cells. […] The activity of PEGylated IL-22 mutants in activating STAT3 phosphorylation in HaCaT cells at different concentrations as determined by FACS is shown in Figure 8. […] Tissue preference of PEG-IL22 mutants for STAT3 phosphorylation in human intestinal and human skin cell lines determined by FACS

B1: 60K-PEG-IL22-D109C: IL-22 cysteine mutant, conjugation site 76, PEG-maleimide 60kD (conjugate)
chain: APISSHCRLDKSNFQQPYITNRTFMLAKEASLADNNTDVRLIGEKLFHGVSMSERCYLMKQVLNFTLEEVLFPQSCRFQPYMQEVVPFLARLSNRLSTCHIEGDDLHIQRNVQKLKDTVKKLGESGEIKAIGELDLLFMSLRNACI
- SAA Cmax compared with IL-22-Fc (SAA): significantly lower
- AUClast [1]: 301.5835 µg·h/mL
- Cmax [1]: 5460.625 ng/mL
- MRT [1]: 41.39 h
- T1/2 [1]: 21.6 h
- Normalized Cmax ratio of Reg3β (relative to IL-22-Fc) (Reg3β; 0.5mg/kg single dose vs IL-22-Fc 0.3 mg/kg): 329%
- Reg3βCmax (Reg3β; 0.5mg/kg single dose, test candidates s.c., one mouse per dose group): 52.0
- Normalized Cmax ratio of Reg3β (relative to IL-22-Fc) (Reg3β; 1mg/kg single dose): 251%
- Reg3βCmax (Reg3β; 1mg/kg single dose, s.c.): 82.9
- Reg3βCmax (Reg3β; 3mg/kg single dose, s.c.): 73.4
- peak concentrations of Reg3β stimulation compared with IL-22-Fc (Reg3β; similar (0.5 mg/kg vs. 0.3 mg/kg) or identical (1 mg/kg) doses): higher peak concentrations
- tissue preference compared with IL-22-Fc (STAT3): superior tissue preference
